These results are taken from paper PMC6420462.

The target in this assay is T1, GluK5-WT (kainate receptor subunit GluK5) (UniProt Q16478).
T1 sequence: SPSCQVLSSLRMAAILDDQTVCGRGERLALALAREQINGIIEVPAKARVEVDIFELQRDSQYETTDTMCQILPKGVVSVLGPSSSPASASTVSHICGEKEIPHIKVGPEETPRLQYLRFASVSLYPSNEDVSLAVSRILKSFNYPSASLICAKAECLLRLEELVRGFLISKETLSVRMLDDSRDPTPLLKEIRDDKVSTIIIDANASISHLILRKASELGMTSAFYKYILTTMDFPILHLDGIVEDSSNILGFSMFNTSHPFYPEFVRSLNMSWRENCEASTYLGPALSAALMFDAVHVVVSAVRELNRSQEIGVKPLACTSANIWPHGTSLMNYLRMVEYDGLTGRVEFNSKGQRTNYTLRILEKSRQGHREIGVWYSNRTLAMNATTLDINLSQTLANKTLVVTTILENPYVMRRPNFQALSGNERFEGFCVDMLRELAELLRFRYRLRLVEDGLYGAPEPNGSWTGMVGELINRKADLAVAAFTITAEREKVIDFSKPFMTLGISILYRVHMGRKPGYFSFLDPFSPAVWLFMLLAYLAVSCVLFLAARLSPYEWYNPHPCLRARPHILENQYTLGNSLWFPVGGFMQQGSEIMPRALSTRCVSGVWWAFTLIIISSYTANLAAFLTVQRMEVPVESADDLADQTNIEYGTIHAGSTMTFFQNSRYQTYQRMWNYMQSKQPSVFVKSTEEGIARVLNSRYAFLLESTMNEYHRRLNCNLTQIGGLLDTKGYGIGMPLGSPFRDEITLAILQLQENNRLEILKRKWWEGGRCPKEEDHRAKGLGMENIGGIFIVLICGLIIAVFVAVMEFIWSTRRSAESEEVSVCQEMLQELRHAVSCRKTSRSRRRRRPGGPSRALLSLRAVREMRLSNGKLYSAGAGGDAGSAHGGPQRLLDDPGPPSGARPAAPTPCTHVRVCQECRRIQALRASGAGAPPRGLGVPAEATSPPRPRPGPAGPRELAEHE

In turn, “GluK2-A487L (from UniProt Q13002 32-908) (receptor)” registered a cell surface (biotinylated) GluK2-A487L, % of total, on co-expression with GluK5-WT in HEK293 cells of 14%; a cell surface (biotinylated) GluK5, % of total, on co-expression with GluK2-A487L in HEK293 cells (GluK5 alone not detectable on the surface) of 14%; an increase in cell surface GluK2-A487L on co-expression with GluK5-WT against the homomeric subunit of 5 fold.

“GluK2-A487T (from UniProt Q13002 32-908) (receptor)”: the cell surface (biotinylated) GluK2-A487T, % of total, on co-expression with GluK5-WT in HEK293 cells came out at 18% and the cell surface (biotinylated) GluK5, % of total, on co-expression with GluK2-A487T in HEK293 cells (GluK5 alone not detectable on the surface) amounted to 20%.

The substance “GluK2-S689N/N690S (from UniProt Q13002 32-908) (receptor)” came in with a cell surface (biotinylated) GluK2-S689N/N690S, % of total, on co-expression with GluK5-WT in HEK293 cells of 12% and a cell surface (biotinylated) GluK5, % of total, on co-expression with GluK2-S689N/N690S in HEK293 cells (GluK5 alone not detectable on the surface) of 10%.

As for “GluK2-T659V (from UniProt Q13002 32-908) (receptor)”, the cell surface (biotinylated) GluK2-T659V, % of total, on co-expression with GluK5-WT in HEK293 cells turned out to be 28%; the cell surface (biotinylated) GluK5, % of total, on co-expression with GluK2-T659V in HEK293 cells (GluK5 alone not detectable on the surface) was found to be 26%; the increase in cell surface GluK2-T659V on co-expression with GluK5-WT against the homomeric subunit was found to be 7 fold.

Substance “GluK2-WT (human GluK2a(Q) kainate receptor subunit) (from UniProt Q13002 32-908)” returned a cell surface (biotinylated) GluK2, % of total, on co-expression with GluK5-WT in HEK293 cells of 28% and a cell surface (biotinylated) GluK5, % of total, on co-expression with GluK2-WT in HEK293 cells (GluK5 alone not detectable on the surface) of 27%.
